Laboratory results: US20140134183A1 (CELL MEDICA SWITZERLAND, published 2014)
Several values for one entry are separate records, joined by “and”; a condition that tells them apart may be missing. Equal entries are not always repeated.

Key:
[1] = biological target: recombinant human IL-1 beta (human, UniProt P01584 117-269); assay: cell-based or functional assay
swine IL-1 beta = biological target: T1, swine IL-1 beta (swine, UniProt P26889 115-267, limits assumed); assay: ELISA, IL-1 beta coated at 2 mcg/ml, Protein L-HRP detection
T1 construct: Bought protein; also called porcine IL-1 beta
T1 sequence (looked up): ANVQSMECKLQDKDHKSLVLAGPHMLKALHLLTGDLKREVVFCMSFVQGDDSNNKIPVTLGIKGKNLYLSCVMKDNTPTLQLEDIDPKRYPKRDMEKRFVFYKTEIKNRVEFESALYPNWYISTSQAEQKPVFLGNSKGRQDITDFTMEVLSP
Excerpt: (§1) Binding to the recombinantly expressed IL-1 beta proteins of the following species was investigated: cynomolgus (Sino Biological Inc., USA, cat. no. 90010-CNAE), rhesus macaque (R&D Systems, USA, cat. no. 1318-RL/CF), swine (Kingfisher Biotech, USA, cat. no. RP0297S-025), canine (Kingfisher Biotech, USA, cat. no. RP0085D-025), guinea pig (Kingfisher Biotech, cat. no. RP0343GP-025), rat (Peprotech, cat. no. 400-01B) and mouse (BioLegend, cat. no. 575102). […] Briefly, proteins were coated at a concentration of 2 mcg/ml over night at 4° C. on Maxisorp 96-well microplates in PBS. […] The ELISA was developed with BM Blue POD substrate (Roche Applied Science) and the absorbance was measured at 450 nm.

canine IL-1 beta = biological target: T2, canine IL-1 beta (canine, UniProt Q28292 115-266, limits assumed); assay: as above
T2 construct: Bought protein
T2 sequence (looked up): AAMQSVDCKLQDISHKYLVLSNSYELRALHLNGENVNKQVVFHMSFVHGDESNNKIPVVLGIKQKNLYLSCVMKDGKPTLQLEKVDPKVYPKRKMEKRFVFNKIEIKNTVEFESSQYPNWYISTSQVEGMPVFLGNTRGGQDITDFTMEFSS
Excerpt: as §1

guinea pig IL-1 beta = biological target: T3, guinea pig IL-1 beta (guinea pig, UniProt Q9WVG1 115-266); assay: as above
T3 construct: Bought protein
T3 sequence: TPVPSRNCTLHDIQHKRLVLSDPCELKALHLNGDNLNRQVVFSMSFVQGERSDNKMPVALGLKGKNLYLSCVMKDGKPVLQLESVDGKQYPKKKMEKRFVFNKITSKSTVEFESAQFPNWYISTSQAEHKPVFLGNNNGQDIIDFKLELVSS
Excerpt: as §1

mouse IL-1 beta = biological target: T4, mouse IL-1 beta (mouse, UniProt P10749 118-269); assay: as above
T4 construct: Bought protein
T4 sequence (P10749 118-269 limits assumed): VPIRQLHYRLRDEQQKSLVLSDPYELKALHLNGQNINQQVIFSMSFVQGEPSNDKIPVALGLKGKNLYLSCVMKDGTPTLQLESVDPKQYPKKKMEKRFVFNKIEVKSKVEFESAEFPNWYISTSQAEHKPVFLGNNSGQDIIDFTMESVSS
Excerpt: as §1

rhIL-1ra = biological target: T5, rhIL-1ra (human, UniProt P18510 26-177); assay: ELISA, cytokine coated, carried out essentially as for the species orthologs
T5 construct: Bought protein; also called rhIL-1 receptor antagonist; IL-1 beta receptor antagonist
T5 sequence (P18510 26-177): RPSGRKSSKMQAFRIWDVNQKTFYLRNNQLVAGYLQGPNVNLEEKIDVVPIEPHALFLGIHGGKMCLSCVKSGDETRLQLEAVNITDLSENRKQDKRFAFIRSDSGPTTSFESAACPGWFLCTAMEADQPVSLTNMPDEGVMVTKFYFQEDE
Method: (§2) Briefly, proteins were coated at a concentration of 2 mcg/ml over night at 4° C. on Maxisorp 96-well microplates in PBS. […] The ELISA was developed with BM Blue POD substrate (Roche Applied Science) and the absorbance was measured at 450 nm.
(§3) In the applied ELISA assay the following antibodies served as positive controls: biotin anti-human IL-1ra (BioLegend, cat. no. 509501), biotin anti-human IL-1 alpha (BioLegend, cat. no. 515703), anti-human IL-18 polyclonal antibody (BioVision, cat. no. 5179-100), biotin anti-human IL-33 antibody (Peprotech, cat. no. 500-P261Bt), anti-human TNF alpha scFv DLX105 (Delenex propriety antibody described in WO 2006/131013 A), biotin anti-human IL-6 (R&D systems, DY206, cat. no. 840114), anti-human IL-36ra (R&D systems, cat. no. AF1275). The ELISA was carried out essentially as described above.

rhIL-1 alpha = biological target: T6, rhIL-1 alpha (human, UniProt P01583 113-271); assay: as above
T6 construct: Bought protein
T6 sequence (looked up): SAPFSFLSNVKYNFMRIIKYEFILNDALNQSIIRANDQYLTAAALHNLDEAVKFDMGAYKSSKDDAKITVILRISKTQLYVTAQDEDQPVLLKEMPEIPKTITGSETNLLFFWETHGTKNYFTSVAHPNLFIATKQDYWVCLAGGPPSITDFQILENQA
Method: as §2, §3

rhIL-18 = biological target: T7, rhIL-18 (human, UniProt Q14116 37-193); assay: as above
T7 construct: Bought protein
Method: as §2, §3

rhIL-33 = biological target: T8, rhIL-33 (human, UniProt O95760 112-270); assay: as above
T8 construct: Bought protein
T8 sequence (looked up): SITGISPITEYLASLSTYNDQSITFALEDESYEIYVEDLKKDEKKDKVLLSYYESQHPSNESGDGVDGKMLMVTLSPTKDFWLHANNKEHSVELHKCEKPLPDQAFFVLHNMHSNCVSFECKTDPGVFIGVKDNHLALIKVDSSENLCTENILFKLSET
Method: as §2, §3

IL-36ra = biological target: T9, IL-36ra (human, UniProt Q9UBH0 2-155); assay: as above
T9 construct: Bought protein
T9 sequence (looked up): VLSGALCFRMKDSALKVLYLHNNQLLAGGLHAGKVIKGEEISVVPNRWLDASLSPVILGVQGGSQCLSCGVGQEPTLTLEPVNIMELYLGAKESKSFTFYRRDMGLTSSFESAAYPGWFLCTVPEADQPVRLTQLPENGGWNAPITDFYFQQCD
Method: as §2, §3

rhTNF alpha = biological target: T10, rhTNF alpha (human, UniProt P01375 77-233); assay: as above
T10 construct: Bought protein
T10 sequence (P01375 77-233): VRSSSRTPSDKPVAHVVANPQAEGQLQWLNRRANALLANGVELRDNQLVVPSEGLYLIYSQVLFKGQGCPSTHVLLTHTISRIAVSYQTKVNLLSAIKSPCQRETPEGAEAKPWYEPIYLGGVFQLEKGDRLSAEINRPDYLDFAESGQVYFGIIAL
Method: as §2, §3

rhIL-6 = biological target: T11, rhIL-6 (human, UniProt P05231 30-212); assay: as above
T11 construct: Bought protein
T11 sequence (P05231 30-212 limits assumed): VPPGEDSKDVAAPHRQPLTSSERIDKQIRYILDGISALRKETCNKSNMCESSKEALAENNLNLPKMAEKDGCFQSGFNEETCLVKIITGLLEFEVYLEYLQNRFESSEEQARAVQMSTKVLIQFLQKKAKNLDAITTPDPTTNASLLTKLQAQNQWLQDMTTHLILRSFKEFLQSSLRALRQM
Method: as §2, §3

rat IL-1 beta = biological target: T12, rat IL-1 beta (rat, UniProt Q63264 117-268); assay: ELISA, IL-1 beta coated at 2 mcg/ml, DLX2323 0.1 to 1.0 mcg/ml, Protein L-HRP detection
T12 construct: Bought protein
T12 sequence (Q63264 117-268 limits assumed): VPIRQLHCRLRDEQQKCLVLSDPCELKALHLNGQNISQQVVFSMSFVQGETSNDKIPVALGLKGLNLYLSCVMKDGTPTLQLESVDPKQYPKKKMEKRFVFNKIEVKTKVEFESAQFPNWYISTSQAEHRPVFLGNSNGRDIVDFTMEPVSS
Excerpt: as §1

cynomolgus IL-1 beta = biological target: T13, cynomolgus IL-1 beta (cynomolgus, UniProt P79182 117-268); assay: as above
T13 construct: Bought protein
T13 sequence (P79182 117-268 limits assumed): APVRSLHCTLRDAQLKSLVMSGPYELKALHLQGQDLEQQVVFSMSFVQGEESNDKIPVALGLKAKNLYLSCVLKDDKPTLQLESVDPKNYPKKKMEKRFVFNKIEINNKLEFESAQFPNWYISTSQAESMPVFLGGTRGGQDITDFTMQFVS
Excerpt: as §1

rhesus macaque IL-1 beta = biological target: T14, rhesus macaque IL-1 beta (rhesus macaque, UniProt P48090 117-269); assay: as above
T14 construct: Bought protein; also called rhesus monkey IL-1 beta
T14 sequence (P48090 117-269 limits assumed): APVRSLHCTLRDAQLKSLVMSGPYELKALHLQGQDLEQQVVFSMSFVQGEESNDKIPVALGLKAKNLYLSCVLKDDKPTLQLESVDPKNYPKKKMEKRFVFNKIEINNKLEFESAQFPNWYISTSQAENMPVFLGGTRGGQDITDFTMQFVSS
Excerpt: as §1

B1: DLX2323 (scFv)
scFv: EIVMTQSPSTLSASVGDRVIITCQASQSIDNWLSWYQQKPGKAPKLLIYRASTLASGVPSRFSGSGSGAEFTLTISSLQPDDFATYYCQNTGGGVSIAFGQGTKLTVLGGGGGSGGGGSGGGGSGGGGSEVQLVESGGGLVQPGGSLRLSCTASGFSLSSAAMAWVRQAPGKGLEWVGIIYDSASTYYASWAKGRFTISRDTSKNTVYLQMNSLRAEDTAVYYCARERAIFSGDFVLWGQGTLVTVSS
notes: also called scFv DLX2323; parental scFv
With B1 the “IC50 of IL-1 beta-induced IL-6 release from human dermal fibroblasts” value [1] was 3 pM and 0.002 nM to 0.004 nM (2×), the binding result (swine IL-1 beta) was “no binding (tested: 1.0 mcg/ml)” and the binding result (canine IL-1 beta) was “no binding (tested: 1.0 mcg/ml)”. B1: no binding (tested: 1.0 mcg/ml) (guinea pig IL-1 beta); no binding (tested: 1.0 mcg/ml) (mouse IL-1 beta); no binding (rhIL-1ra). B1: no binding (rhIL-1 alpha); no binding (rhIL-18); no binding (rhIL-33). B1: no binding (IL-36ra); no binding (rhTNF alpha); no binding (rhIL-6). B1: binds (rat IL-1 beta); binds (cynomolgus IL-1 beta); binds (rhesus macaque IL-1 beta).
